# Data from patent US20050256058A1 (GEORGIA TECH RESEARCH, published 2005).
# Numbered stars: 1 amine (or outer) side, 2 acyl side, 3 side chain; on linkers, the order of the positions; unused ones are H or OH. Square brackets hold non-standard residues; d marks the D form. * marks the point of attachment. CH═CH‑CON(CH3)CH2CH2Ph = CN(CCc1ccccc1)C(=O)/C=C/*; AAsp = aza-Asp, O=C(N(CC(=O)[*:3])N[*:1])[*:2]; CH═CH‑CON(CH3)CH2Ph = CN(Cc1ccccc1)C(=O)/C=C/*; CH═CH‑COOCH2Ph = O=C(/C=C/*)OCc1ccccc1; CH═CH‑COOEt = CCOC(=O)/C=C/*; Cbz = O=C(OCc1ccccc1)*
# T1: Caspase-2 (UniProt P42575 170-452, limits assumed)
# T1 sequence (looked up): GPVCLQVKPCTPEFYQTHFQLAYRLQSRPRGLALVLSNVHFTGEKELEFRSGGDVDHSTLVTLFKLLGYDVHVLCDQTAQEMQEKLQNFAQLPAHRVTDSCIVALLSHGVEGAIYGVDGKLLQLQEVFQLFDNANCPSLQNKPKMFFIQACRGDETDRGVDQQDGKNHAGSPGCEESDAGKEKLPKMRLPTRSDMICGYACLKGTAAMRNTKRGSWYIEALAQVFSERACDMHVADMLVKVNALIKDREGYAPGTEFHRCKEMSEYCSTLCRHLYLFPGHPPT
# T2: Caspase-6 (UniProt P55212 24-293, limits assumed)
# T2 sequence (looked up): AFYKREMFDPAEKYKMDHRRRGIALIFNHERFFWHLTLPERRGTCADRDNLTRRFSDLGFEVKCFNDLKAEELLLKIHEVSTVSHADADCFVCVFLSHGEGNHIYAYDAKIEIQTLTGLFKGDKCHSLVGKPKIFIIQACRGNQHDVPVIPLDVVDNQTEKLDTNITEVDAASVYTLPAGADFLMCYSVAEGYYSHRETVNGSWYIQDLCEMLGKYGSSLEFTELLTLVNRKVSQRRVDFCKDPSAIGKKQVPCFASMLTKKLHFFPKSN
# T3: Caspase-3 (UniProt P42574 29-277)
# T3 sequence (looked up): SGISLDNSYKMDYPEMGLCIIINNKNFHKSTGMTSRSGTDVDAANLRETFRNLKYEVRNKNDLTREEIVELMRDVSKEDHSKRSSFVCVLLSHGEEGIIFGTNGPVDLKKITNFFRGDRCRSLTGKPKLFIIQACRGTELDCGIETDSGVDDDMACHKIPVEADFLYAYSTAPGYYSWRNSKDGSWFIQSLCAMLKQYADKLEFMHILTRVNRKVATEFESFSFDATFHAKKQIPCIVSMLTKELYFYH
# T4: Caspase-10 (UniProt Q92851 220-521, limits assumed)
# T4 sequence (looked up): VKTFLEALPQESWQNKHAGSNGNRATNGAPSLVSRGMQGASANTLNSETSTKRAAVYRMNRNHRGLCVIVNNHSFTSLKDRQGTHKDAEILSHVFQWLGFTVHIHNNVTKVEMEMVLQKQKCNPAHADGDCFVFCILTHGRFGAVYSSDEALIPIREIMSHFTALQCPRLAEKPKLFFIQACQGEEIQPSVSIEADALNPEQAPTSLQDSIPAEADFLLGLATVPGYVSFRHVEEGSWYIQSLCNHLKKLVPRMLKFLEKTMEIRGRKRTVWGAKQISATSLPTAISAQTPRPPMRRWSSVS
# T5: Caspase-9 (UniProt P55211 1-416, limits assumed)
# T5 sequence (looked up): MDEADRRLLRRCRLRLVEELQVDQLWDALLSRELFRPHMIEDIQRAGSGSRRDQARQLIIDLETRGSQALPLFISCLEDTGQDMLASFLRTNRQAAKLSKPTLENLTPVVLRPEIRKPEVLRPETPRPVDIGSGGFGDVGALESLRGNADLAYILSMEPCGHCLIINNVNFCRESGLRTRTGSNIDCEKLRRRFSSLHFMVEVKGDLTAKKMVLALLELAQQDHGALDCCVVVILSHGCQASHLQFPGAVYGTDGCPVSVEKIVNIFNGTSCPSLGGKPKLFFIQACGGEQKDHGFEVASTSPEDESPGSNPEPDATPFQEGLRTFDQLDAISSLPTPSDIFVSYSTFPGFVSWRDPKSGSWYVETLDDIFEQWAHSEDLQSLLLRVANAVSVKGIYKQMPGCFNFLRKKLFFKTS
# T6: Caspase-7 (UniProt P55210 24-303)
# T6 sequence (looked up): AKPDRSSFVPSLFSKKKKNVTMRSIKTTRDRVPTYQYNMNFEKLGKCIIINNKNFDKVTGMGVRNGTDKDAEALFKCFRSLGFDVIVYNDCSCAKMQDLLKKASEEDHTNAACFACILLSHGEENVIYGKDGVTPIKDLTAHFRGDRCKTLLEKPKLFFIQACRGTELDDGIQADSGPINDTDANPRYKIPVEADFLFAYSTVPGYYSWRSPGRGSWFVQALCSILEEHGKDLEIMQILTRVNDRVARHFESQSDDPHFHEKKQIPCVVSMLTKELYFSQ
# Columns and labels:
# Test in all cases: cell-based or functional assay
# Caspase-2 = molecular target: T1, Caspase-2
# Caspase-6 = molecular target: T2, Caspase-6
# Caspase-3 = molecular target: T3, Caspase-3
# Caspase-10 = molecular target: T4, Caspase-10
# Caspase-9 = molecular target: T5, Caspase-9
# Caspase-8 = Caspase-8 (UniProt Q14790 217-479)
# Sequence of Caspase-8 (Q14790 217-479 limits assumed): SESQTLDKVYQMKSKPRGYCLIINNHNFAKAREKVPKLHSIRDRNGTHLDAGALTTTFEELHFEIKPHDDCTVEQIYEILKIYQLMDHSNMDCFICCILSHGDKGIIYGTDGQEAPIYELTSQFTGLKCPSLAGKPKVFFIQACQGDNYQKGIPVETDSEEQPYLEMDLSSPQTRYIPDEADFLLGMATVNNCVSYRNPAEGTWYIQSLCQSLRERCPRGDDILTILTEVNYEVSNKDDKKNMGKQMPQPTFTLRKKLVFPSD
# Caspase-7 = molecular target: T6, Caspase-7
Binder,k2 (Caspase-2),k2 (Caspase-6),k2 (Caspase-3),k2 (Caspase-10),k2 (Caspase-9),k2 (Caspase-8),k2 (Caspase-7)
Cbz-DEV[AAsp]-{CH═CH‑CO‑tetrahydroquinoline} [Cbz-Asp-Glu-Val-AAsp-CH═CH-CON-tetrahydroquinoline],390 M⁻¹ s⁻¹,5700 M⁻¹ s⁻¹,2.3e+06 M⁻¹ s⁻¹,8330 M⁻¹ s⁻¹,340 M⁻¹ s⁻¹,118000 M⁻¹ s⁻¹,137000 M⁻¹ s⁻¹
Cbz-Glu-Val-[AAsp]-{CH═CH‑COOEt} (SMILES CCOC(=O)/C=C/C(=O)N(CC(=O)O)NC(=O)[C@@H](NC(=O)[C@H](CCC(=O)O)NC(=O)OCc1ccccc1)C(C)C) [Cbz-Glu-Val-AAsp-CH═CH-COOEt],90 M⁻¹ s⁻¹,3540 M⁻¹ s⁻¹,38600 M⁻¹ s⁻¹,8940 M⁻¹ s⁻¹,–,–,52400 M⁻¹ s⁻¹
Cbz-LET[AAsp]-{CH═CH‑CON(CH3)CH2Ph} (SMILES CC(C)C[C@H](NC(=O)OCc1ccccc1)C(=O)N[C@@H](CCC(=O)O)C(=O)N[C@H](C(=O)NN(CC(=O)O)C(=O)/C=C/C(=O)N(C)Cc1ccccc1)[C@@H](C)O) [Cbz-Leu-Glu-Thr-AAsp-CH═CH-CON(CH3)CH2Ph],140 M⁻¹ s⁻¹,10800 M⁻¹ s⁻¹,6000 M⁻¹ s⁻¹,8430 M⁻¹ s⁻¹,4320 M⁻¹ s⁻¹,169000 M⁻¹ s⁻¹,520 M⁻¹ s⁻¹
Cbz-DEV[AAsp]-{CH═CH‑COPh} [Cbz-Asp-Glu-Val-AAsp-CH═CH-COPh],165 M⁻¹ s⁻¹,1800 M⁻¹ s⁻¹,122000 M⁻¹ s⁻¹,930 M⁻¹ s⁻¹,–,9720 M⁻¹ s⁻¹,10800 M⁻¹ s⁻¹
Cbz-LET[AAsp]-{CH═CH‑CONHCH2Ph} [Cbz-Leu-Glu-Thr-AAsp-CH═CH-CONHCH2Ph],66 M⁻¹ s⁻¹,1550 M⁻¹ s⁻¹,1120 M⁻¹ s⁻¹,14400 M⁻¹ s⁻¹,1400 M⁻¹ s⁻¹,70200 M⁻¹ s⁻¹,340 M⁻¹ s⁻¹
Cbz-DEV[AAsp]-{CH═CH‑CONHCH2‑4‑F‑Ph} [Cbz-Asp-Glu-Val-AAsp-CH═CH-CONHCH2-4-F-Ph],–,4400 M⁻¹ s⁻¹,2.1e+06 M⁻¹ s⁻¹,37700 M⁻¹ s⁻¹,900 M⁻¹ s⁻¹,85100 M⁻¹ s⁻¹,329000 M⁻¹ s⁻¹
Cbz-LET[AAsp]-{CH═CH‑CONHCH2CH2Ph} [Cbz-Leu-Glu-Thr-AAsp-CH═CH-CONHCH2CH2Ph],110 M⁻¹ s⁻¹,2150 M⁻¹ s⁻¹,5400 M⁻¹ s⁻¹,17900 M⁻¹ s⁻¹,1760 M⁻¹ s⁻¹,121000 M⁻¹ s⁻¹,440 M⁻¹ s⁻¹
Cbz-DEV[AAsp]-{CH═CH‑CON(CH3)CH2Ph} (SMILES CC(C)[C@H](NC(=O)[C@H](CCC(=O)O)NC(=O)[C@H](CC(=O)O)NC(=O)OCc1ccccc1)C(=O)NN(CC(=O)O)C(=O)/C=C/C(=O)N(C)Cc1ccccc1) [Cbz-Asp-Glu-Val-AAsp-CH═CH-CON(CH3)CH2Ph],660 M⁻¹ s⁻¹,9500 M⁻¹ s⁻¹,2.64e+06 M⁻¹ s⁻¹,29400 M⁻¹ s⁻¹,820 M⁻¹ s⁻¹,90300 M⁻¹ s⁻¹,275000 M⁻¹ s⁻¹
Cbz-DEV[AAsp]-{CH═CH‑CON(CH2-1-Napth)2} [Cbz-Asp-Glu-Val-AAsp-CH═CH-CON(CH2-1-Napth)2],410 M⁻¹ s⁻¹,29700 M⁻¹ s⁻¹,5.62e+06 M⁻¹ s⁻¹,32500 M⁻¹ s⁻¹,150 M⁻¹ s⁻¹,9460 M⁻¹ s⁻¹,875000 M⁻¹ s⁻¹
Cbz-DEV[AAsp]-{cis‑CH═CH‑COOEt} [Cbz-Asp-Glu-Val-AAsp-CH═CH-COOEt (cis)],26200 M⁻¹ s⁻¹,11000 M⁻¹ s⁻¹,1.06e+06 M⁻¹ s⁻¹,13500 M⁻¹ s⁻¹,–,181000 M⁻¹ s⁻¹,139000 M⁻¹ s⁻¹
Cbz-DEV[AAsp]-{CH═CH‑CON(CH3)CH2CH2Ph} (SMILES CC(C)[C@H](NC(=O)[C@H](CCC(=O)O)NC(=O)[C@H](CC(=O)O)NC(=O)OCc1ccccc1)C(=O)NN(CC(=O)O)C(=O)/C=C/C(=O)N(C)CCc1ccccc1) [Cbz-Asp-Glu-Val-AAsp-CH═CH-CON(CH3)CH2CH2Ph],320 M⁻¹ s⁻¹,4000 M⁻¹ s⁻¹,1.18e+06 M⁻¹ s⁻¹,9570 M⁻¹ s⁻¹,425 M⁻¹ s⁻¹,31900 M⁻¹ s⁻¹,172000 M⁻¹ s⁻¹
Cbz-LET[AAsp]-{CH═CH‑CONHCH2‑4‑F‑Ph} [Cbz-Leu-Glu-Thr-AAsp-CH═CH-CONHCH2-4-F-Ph],70 M⁻¹ s⁻¹,3100 M⁻¹ s⁻¹,4490 M⁻¹ s⁻¹,9380 M⁻¹ s⁻¹,1700 M⁻¹ s⁻¹,171000 M⁻¹ s⁻¹,410 M⁻¹ s⁻¹
Cbz-LET[AAsp]-{CH═CH‑CON(CH3)CH2CH2Ph} (SMILES CC(C)C[C@H](NC(=O)OCc1ccccc1)C(=O)N[C@@H](CCC(=O)O)C(=O)N[C@H](C(=O)NN(CC(=O)O)C(=O)/C=C/C(=O)N(C)CCc1ccccc1)[C@@H](C)O) [Cbz-Leu-Glu-Thr-AAsp-CH═CH-CON(CH3)CH2CH2Ph],50 M⁻¹ s⁻¹,2550 M⁻¹ s⁻¹,2620 M⁻¹ s⁻¹,6190 M⁻¹ s⁻¹,960 M⁻¹ s⁻¹,65300 M⁻¹ s⁻¹,290 M⁻¹ s⁻¹

# Second part, the binder after the results:
k2 (Caspase-2),k2 (Caspase-6),k2 (Caspase-3),k2 (Caspase-10),k2 (Caspase-9),k2 (Caspase-8),k2 (Caspase-7),Binder
290 M⁻¹ s⁻¹,11400 M⁻¹ s⁻¹,4700 M⁻¹ s⁻¹,6050 M⁻¹ s⁻¹,1190 M⁻¹ s⁻¹,176000 M⁻¹ s⁻¹,730 M⁻¹ s⁻¹,Cbz-LET[AAsp]-{CH═CH‑CONHPh} [Cbz-Leu-Glu-Thr-AAsp-CH═CH-CONHPh]
–,–,–,–,15 M⁻¹ s⁻¹,–,–,Cbz-Val-[AAsp]-{CH═CH‑Cl} (also: cis isomer) [Cbz-Val-AAsp-CH═CH-Cl]
–,–,185 M⁻¹ s⁻¹,–,20 M⁻¹ s⁻¹,–,60 M⁻¹ s⁻¹,Cbz-Val-[AAsp]-{CH═CH‑CONHCH2Ph} [Cbz-Val-AAsp-CH═CH-CONHCH2Ph]
–,–,184 M⁻¹ s⁻¹,–,32 M⁻¹ s⁻¹,–,55 M⁻¹ s⁻¹,Cbz-Val-[AAsp]-{CH═CH‑CONH‑nBu} [Cbz-Val-AAsp-CH═CH-CONH-nBu]
–,–,8000 M⁻¹ s⁻¹,389 M⁻¹ s⁻¹,5240 M⁻¹ s⁻¹,–,2680 M⁻¹ s⁻¹,Cbz-Val-[AAsp]-{CH═CH‑COOEt} [Cbz-Val-AAsp-CH═CH-COOEt]
–,–,–,–,–,–,56 M⁻¹ s⁻¹,Cbz-Val-[AAsp]-{CH═CH‑CH═CH‑CH3} [Cbz-Val-AAsp-CH═CH-CH═CH-CH3]
480 M⁻¹ s⁻¹,47600 M⁻¹ s⁻¹,4600 M⁻¹ s⁻¹,18900 M⁻¹ s⁻¹,–,98400 M⁻¹ s⁻¹,1570 M⁻¹ s⁻¹,Cbz-LET[AAsp]-{CH═CH‑COOCH2Ph} (SMILES CC(C)C[C@H](NC(=O)OCc1ccccc1)C(=O)N[C@@H](CCC(=O)O)C(=O)N[C@H](C(=O)NN(CC(=O)O)C(=O)/C=C/C(=O)OCc1ccccc1)[C@@H](C)O) [Cbz-Leu-Glu-Thr-AAsp-CH═CH-COOCH2Ph]
–,–,–,–,19 M⁻¹ s⁻¹,–,–,Cbz-Val-[AAsp]-{CH═CH‑4‑Cl‑Ph} [Cbz-Val-AAsp-CH═CH-4-Cl-Ph]
